The results in this text go back to FireProtDB (doi:10.1021/bi050502v).

First the molecules themselves.
B1: Apolipophorin-3b, P10762 (parent)
chain: MNTLLAVLMLAVAAQARPDAAGHVNIAEAVQQLNHTIVNAAHELHETLGLPTPDEALNLLTEQANAFKTKIAEVTTSLKQEAEKHQGSVAEQLNRFARNLNNSIHDAATSAQPADQLNSLQSALTNVGHQWQTSQPRPSVAQEAWAPVQSALQEAAEKTKEAAANLQNSIQSAVQKPAN

Variants of B1 are the subject of this data set. The conditions noted are these: Locusta migratoria, pH 7.4, CD, Na2HPO4 KH2PO4 10 mM 2 mM, NaCl 127 mM, reversible: yes, structure 1LS4, whole UniProt chain shown; for ddG of mutation (higher = less stable) / denaturant midpoint (higher = more stable) / unfolding free energy: 25 °C, GdnHCl; for Tm / change of melting temperature, mutant - wild type (higher = more stable): Thermal.

Take T47A: the “ddG of mutation (higher = less stable)” value was -0.6 kcal/mol, the “denaturant midpoint (higher = more stable)” value (“denaturant midpoint” below) was 0.62 M, the unfolding free energy came to 2.65 kcal/mol and the melting temperature (Tm) came out at 57 °C. Also, the “change of melting temperature, mutant - wild type (higher = more stable)” value (“change of melting temperature, mutant” for short) was 4 °C.
For A155K, the “ddG of mutation (higher = less stable)” value was found to be 1.69 kcal/mol, the “denaturant midpoint” value came out at 0.16 M, the unfolding free energy worked out at 0.36 kcal/mol and the Tm was 38 °C. Further, the “change of melting temperature, mutant” value is -15 °C.
For L33K the same measures were 1.36 kcal/mol, 0.2 M, 0.69 kcal/mol, 37 °C and -16 °C.
For the variant T159A, the “ddG of mutation (higher = less stable)” value amounted to 1.32 kcal/mol, the “denaturant midpoint” value was determined as 0.28 M, the unfolding free energy stood at 0.73 kcal/mol and the midpoint of thermal melting (Tm) turned out to be 44 °C. The “change of melting temperature, mutant” value is -9 °C.
As for T47A T159A, the “ddG of mutation (higher = less stable)” value is 1.06 kcal/mol, the “denaturant midpoint” value came out at 0.37 M and the unfolding free energy is 0.99 kcal/mol.

As a reminder, the Tm is the temperature at which the thermal transition is half complete.
